Data taken from publication PMC9700324, “Selection-free endogenous tagging of cell lines by bicistronic co-expression of the surface antigen NGFR” (MethodsX, 2022).

T1: nLAP-tagged WDR59 (WD Repeat Domain 59), endogenously tagged (human (endogenous in HEK293T), UniProt Q6PJI9 1-974)
T1 construct: WDR59 (WD Repeat Domain 59), subunit of GATOR2, human; NGFRETD is split off at the P2A site and is not part of this chain; The tag was inserted in the 5'UTR (donor NGFR "-2"); they are printed only as DNA; also called WDR59-GFP; nLAP-WDR59; source: endogenously tagged allele in HEK (Lenti-X 293T) spCas9+ cells, WDR59-NGFRETD-nLAP clone D5, in lysate; not shown: EGFP, N-terminal, kept
T1 sequence (looked up): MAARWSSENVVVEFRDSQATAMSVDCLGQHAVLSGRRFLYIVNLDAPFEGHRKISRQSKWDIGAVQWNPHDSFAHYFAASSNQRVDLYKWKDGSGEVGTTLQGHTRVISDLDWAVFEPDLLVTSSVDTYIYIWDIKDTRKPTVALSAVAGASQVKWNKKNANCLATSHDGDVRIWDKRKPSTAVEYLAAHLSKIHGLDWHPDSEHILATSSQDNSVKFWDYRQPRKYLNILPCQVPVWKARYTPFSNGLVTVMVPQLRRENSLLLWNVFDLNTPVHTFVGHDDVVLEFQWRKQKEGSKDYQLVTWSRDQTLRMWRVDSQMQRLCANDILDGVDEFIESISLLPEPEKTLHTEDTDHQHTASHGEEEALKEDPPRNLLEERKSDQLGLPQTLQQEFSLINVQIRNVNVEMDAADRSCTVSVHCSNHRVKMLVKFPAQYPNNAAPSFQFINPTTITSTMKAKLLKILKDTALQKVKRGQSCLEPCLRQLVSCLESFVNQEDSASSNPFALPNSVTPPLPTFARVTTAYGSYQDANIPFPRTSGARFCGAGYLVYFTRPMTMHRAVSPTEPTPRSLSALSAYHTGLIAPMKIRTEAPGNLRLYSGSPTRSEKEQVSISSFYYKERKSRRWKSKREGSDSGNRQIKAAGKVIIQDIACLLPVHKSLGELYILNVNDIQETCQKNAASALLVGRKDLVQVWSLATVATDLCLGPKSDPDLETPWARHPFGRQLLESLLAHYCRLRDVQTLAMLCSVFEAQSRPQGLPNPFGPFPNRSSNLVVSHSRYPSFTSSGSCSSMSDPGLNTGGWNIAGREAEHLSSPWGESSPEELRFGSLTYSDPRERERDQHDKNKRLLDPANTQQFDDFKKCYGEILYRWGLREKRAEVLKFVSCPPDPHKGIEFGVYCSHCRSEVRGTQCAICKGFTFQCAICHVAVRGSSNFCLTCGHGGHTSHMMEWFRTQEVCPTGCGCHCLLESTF

T2: nLAP-tagged WDR59 (WD Repeat Domain 59), endogenously tagged (human (endogenous in HEK293T)), Q6PJI9
T2 chain: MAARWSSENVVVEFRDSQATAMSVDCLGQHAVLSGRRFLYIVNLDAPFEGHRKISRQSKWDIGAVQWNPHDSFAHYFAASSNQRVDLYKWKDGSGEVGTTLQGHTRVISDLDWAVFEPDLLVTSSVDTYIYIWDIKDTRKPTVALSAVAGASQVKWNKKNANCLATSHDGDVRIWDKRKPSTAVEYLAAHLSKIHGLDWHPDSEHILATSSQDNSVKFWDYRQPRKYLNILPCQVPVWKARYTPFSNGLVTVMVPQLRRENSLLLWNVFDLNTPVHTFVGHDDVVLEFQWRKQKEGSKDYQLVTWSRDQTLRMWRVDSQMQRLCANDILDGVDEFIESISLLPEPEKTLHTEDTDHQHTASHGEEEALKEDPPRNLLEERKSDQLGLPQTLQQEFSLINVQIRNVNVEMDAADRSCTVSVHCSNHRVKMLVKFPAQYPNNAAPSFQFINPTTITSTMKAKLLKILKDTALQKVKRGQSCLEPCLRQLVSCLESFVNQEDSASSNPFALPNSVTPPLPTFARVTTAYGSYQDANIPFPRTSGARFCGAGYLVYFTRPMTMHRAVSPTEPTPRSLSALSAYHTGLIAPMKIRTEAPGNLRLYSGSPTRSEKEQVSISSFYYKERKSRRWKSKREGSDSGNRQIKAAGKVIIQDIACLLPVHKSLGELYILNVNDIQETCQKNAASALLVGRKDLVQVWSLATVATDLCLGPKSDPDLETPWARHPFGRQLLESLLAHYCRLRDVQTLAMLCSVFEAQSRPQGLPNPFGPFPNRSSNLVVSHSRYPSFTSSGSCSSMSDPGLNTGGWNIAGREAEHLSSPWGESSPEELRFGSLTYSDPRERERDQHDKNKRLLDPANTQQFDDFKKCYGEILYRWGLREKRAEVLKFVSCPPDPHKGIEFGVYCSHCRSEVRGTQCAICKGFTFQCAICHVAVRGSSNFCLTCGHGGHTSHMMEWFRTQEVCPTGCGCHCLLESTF


Assays:
[1] = target: T1, nLAP-tagged WDR59 (WD Repeat Domain …); assay: co-IP; nLAP-tagged WDR59 precipitated from 1,000-3,000 µg lysate protein with GFP-Trap magnetic agarose beads (GFP-specific nanobodies) overnight at 4°C; CoIP buffer (10 mM Tris-HCl pH 8, 150 mM NaCl, 5 mM EDTA, 0.5% Triton X-100, 60 mM octyl-β-D-glucopyranoside); 5 washes; partners detected by Western blot; cells untreated, amino acid-starved 16 h with or without 60 min stimulation with all amino acids or leucine, …; settings: partners not purified
[2] = target: T2, nLAP-tagged WDR59 (WD Repeat Domain …); assay: as above; settings: remark: other sources report otherwise

Row | Binder | co-IP signal after leucine restimulation, fold of the leucine-starved sample [1] | co-IP signal after restimulation with all amino acids, percent of the amino acid-starved sample (normalised to WDR59-GFP) [1] | co-IP signal after leucine restimulation, fold of the leucine-starved sample [2] | co-IP signal after restimulation with all amino acids, fold of the amino acid-starved sample (normalised to WDR59-GFP) [2] | co-IP signal after restimulation with leucine alone, fold of the amino acid-starved sample (normalised to WDR59-GFP) [2]
1 | MIOS (Meiosis Regulator For Oocyte Development) (natural protein, human (endogenous in HEK293T), UniProt Q9NXC5 1-875, looked up, MIOS (Meiosis Regulator For Oocyte Development), subunit of GATOR2, human, endogenous; also called GATOR2 subunit MIOS; source: endogenous, HEK (Lenti-X 293T) spCas9+ WDR59-NGFRETD-nLAP clone D5 lysate) MSGTKPDILWAPHHVDRFVVCDSELSLYHVESTVNSELKAGSLRLSEDSAATLLSINSDTPYMKCVAWYLNYDPECLLAVGQANGRVVLTSLGQDHNSKFKDLIGKEFVPKHARQCNTLAWNPLDSNWLAAGLDKHRADFSVLIWDICSKYTPDIVPMEKVKLSAGETETTLLVTKPLYELGQNDACLSLCWLPRDQKLLLAGMHRNLAIFDLRNTSQKMFVNTKAVQGVTVDPYFHDRVASFYEGQVAIWDLRKFEKPVLTLTEQPKPLTKVAWCPTRTGLLATLTRDSNIIRLYDMQHTPTPIGDETEPTIIERSVQPCDNYIASFAWHPTSQNRMIVVTPNRTMSDFTVFERISLAWSPITSLMWACGRHLYECTEEENDNSLEKDIATKMRLRALSRYGLDTEQVWRNHILAGNEDPQLKSLWYTLHFMKQYTEDMDQKSPGNKGSLVYAGIKSIVKSSLGMVESSRHNWSGLDKQSDIQNLNEERILALQLCGWIKKGTDVDVGPFLNSLVQEGEWERAAAVALFNLDIRRAIQILNEGASSEKGDLNLNVVAMALSGYTDEKNSLWREMCSTLRLQLNNPYLCVMFAFLTSETGSYDGVLYENKVAVRDRVAFACKFLSDTQLNRYIEKLTNEMKEAGNLEGILLTGLTKDGVDLMESYVDRTGDVQTASYCMLQGSPLDVLKDERVQYWIENYRNLLDAWRFWHKRAEFDIHRSKLDPSSKPLAQVFVSCNFCGKSISYSCSAVPHQGRGFSQYGVSGSPTKSKVTSCPGCRKPLPRCALCLINMGTPVSSCPGGTKSDEKVDLSKDKKLAQFNNWFTWCHNCRHGGHAGHMLSWFRDHAECPVSACTCKCMQLDTTGNLVPAETVQP | ~2 fold | 85% | – | – | –
2 | NPRL3 (Nitrogen Permease Regulator 3-Like Protein), Q12980 1-569 (natural protein) MRDNTSPISVILVSSGSRGNKLLFRYPFQRSQEHPASQTSKPRSRYAASNTGDHADEQDGDSRFSDVILATILATKSEMCGQKFELKIDNVRFVGHPTLLQHALGQISKTDPSPKREAPTMILFNVVFALRANADPSVINCLHNLSRRIATVLQHEERRCQYLTREAKLILALQDEVSAMADGNEGPQSPFHHILPKCKLARDLKEAYDSLCTSGVVRLHINSWLEVSFCLPHKIHYAASSLIPPEAIERSLKAIRPYHALLLLSDEKSLLGELPIDCSPALVRVIKTTSAVKNLQQLAQDADLALLQVFQLAAHLVYWGKAIIIYPLCENNVYMLSPNASVCLYSPLAEQFSHQFPSHDLPSVLAKFSLPVSLSEFRNPLAPAVQETQLIQMVVWMLQRRLLIQLHTYVCLMASPSEEEPRPREDDVPFTARVGGRSLSTPNALSFGSPTSSDDMTLTSPSMDNSSAELLPSGDSPLNQRMTENLLASLSEHERAAILSVPAAQNPEDLRMFARLLHYFRGRHHLEEIMYNENTRRSQLLMLFDKFRSVLVVTTHEDPVIAVFQALLP | – | – | 2 fold | 1.2 fold | 1.89 fold
3 | WDR24 (WD Repeat Domain 24) (natural protein, human (endogenous in HEK293T), UniProt Q96S15 1-790, looked up, WDR24 (WD Repeat Domain 24), subunit of GATOR2, human, endogenous; also called GATOR2 subunit WDR24; source: endogenous, HEK (Lenti-X 293T) spCas9+ WDR59-NGFRETD-nLAP clone D5 lysate) MEKMSRVTTALGGSVLTGRTMHCHLDAPANAISVCRDAAQVVVAGRSIFKIYAIEEEQFVEKLNLRVGRKPSLNLSCADVVWHQMDENLLATAATNGVVVTWNLGRPSRNKQDQLFTEHKRTVNKVCFHPTEAHVLLSGSQDGFMKCFDLRRKDSVSTFSGQSESVRDVQFSIRDYFTFASTFENGNVQLWDIRRPDRCERMFTAHNGPVFCCDWHPEDRGWLATGGRDKMVKVWDMTTHRAKEMHCVQTIASVARVKWRPECRHHLATCSMMVDHNIYVWDVRRPFVPAAMFEEHRDVTTGIAWRHPHDPSFLLSGSKDSSLCQHLFRDASQPVERANPEGLCYGLFGDLAFAAKESLVAAESGRKPYTGDRRHPIFFKRKLDPAEPFAGLASSALSVFETEPGGGGMRWFVDTAERYALAGRPLAELCDHNAKVARELGRNQVAQTWTMLRIIYCSPGLVPTANLNHSVGKGGSCGLPLMNSFNLKDMAPGLGSETRLDRSKGDARSDTVLLDSSATLITNEDNEETEGSDVPADYLLGDVEGEEDELYLLDPEHAHPEDPECVLPQEAFPLRHEIVDTPPGPEHLQDKADSPHVSGSEADVASLAPVDSSFSLLSVSHALYDSRLPPDFFGVLVRDMLHFYAEQGDVQMAVSVLIVLGERVRKDIDEQTQEHWYTSYIDLLQRFRLWNVSNEVVKLSTSRAVSCLNQASTTLHVNCSHCKRPMSSRGWVCDRCHRCASMCAVCHHVVKGLFVWCQGCSHGGHLQHIMKWLEGSSHCPAGCGHLCEYS | ~2 fold | 71% | – | – | –
4 | Sestrin-2 (SESN2) (natural protein, human (endogenous in HEK293T), UniProt P58004 1-480, looked up, Sestrin-2 (SESN2), leucine-sensing protein, human, endogenous; source: endogenous, HEK (Lenti-X 293T) spCas9+ WDR59-NGFRETD-nLAP clone D5 lysate) MIVADSECRAELKDYLRFAPGGVGDSGPGEEQRESRARRGPRGPSAFIPVEEVLREGAESLEQHLGLEALMSSGRVDNLAVVMGLHPDYFTSFWRLHYLLLHTDGPLASSWRHYIAIMAAARHQCSYLVGSHMAEFLQTGGDPEWLLGLHRAPEKLRKLSEINKLLAHRPWLITKEHIQALLKTGEHTWSLAELIQALVLLTHCHSLSSFVFGCGILPEGDADGSPAPQAPTPPSEQSSPPSRDPLNNSGGFESARDVEALMERMQQLQESLLRDEGTSQEEMESRFELEKSESLLVTPSADILEPSPHPDMLCFVEDPTFGYEDFTRRGAQAPPTFRAQDYTWEDHGYSLIQRLYPEGGQLLDEKFQAAYSLTYNTIAMHSGVDTSVLRRAIWNYIHCVFGIRYDDYDYGEVNQLLERNLKVYIKTVACYPEKTTRRMYNLFWRHFRHSEKVHVNLLLLEARMQAALLYALRAITRYMT | ~2 fold | 82% | – | – | –
